14 molecules from patent publication US20230381229A1 (ALPINE IMMUNE SCIENCES, INC., published 2023) can be followed below.

B1: variant CD155 IgV-Fc P18S, Q32R, Q62K, R78G, L79P, F91S, T107A, R113W (Fc fusion)
chain: WPPPGTGDVVVQAPTQVSGFLGDSVTLPCYLRVPNMEVTHVSQLTWARHGESGSMAVFHQTKGPSYSESKRLEFVAAGPGAELRNASLRMSGLRVEDEGNYTCLFVAFPQGSWSVDIWLRVLGSGGGGSEPKSSDKTHTCPPCPAPEAEGAPSVFLFPPKPKDTLMISRTPEVTCVVVDVSHEDPEVKFNWYVDGVEVHNAKTKPREEQYNSTYRVVSVLTVLHQDWLNGKEYKCKVSNKALPAPIEKTISKAKGQPREPQVYTLPPSRDELTKNQVSLTCLVKGFYPSDIAVEWESNGQPENNYKTTPPVLDSDGSFFLYSKLTVDKSRWQQGNVFSCSVMHEALHNHYTQKSLSLSPGK
B2: variant CD155 IgV-Fc V9I, P18S, S24P, H49Q, F58Y, Q60R, Q62K, L79P, F91S, T107M (Fc fusion)
chain: WPPPGTGDIVVQAPTQVSGFLGDPVTLPCYLQVPNMEVTHVSQLTWARQGESGSMAVYHRTKGPSYSESKRLEFVAARPGAELRNASLRMSGLRVEDEGNYTCLFVMFPQGSRSVDIWLRVLGSGGGGSEPKSSDKTHTCPPCPAPEAEGAPSVFLFPPKPKDTLMISRTPEVTCVVVDVSHEDPEVKFNWYVDGVEVHNAKTKPREEQYNSTYRVVSVLTVLHQDWLNGKEYKCKVSNKALPAPIEKTISKAKGQPREPQVYTLPPSRDELTKNQVSLTCLVKGFYPSDIAVEWESNGQPENNYKTTPPVLDSDGSFFLYSKLTVDKSRWQQGNVFSCSVMHEALHNHYTQKSLSLSPGK
B3: variant CD155 IgV-Fc P18S, L21M, Y30F, N35D, R84W, F91S, T107M, D116G (Fc fusion)
chain: WPPPGTGDVVVQAPTQVSGFMGDSVTLPCFLQVPDMEVTHVSQLTWARHGESGSMAVFHQTQGPSYSESKRLEFVAARLGAELWNASLRMSGLRVEDEGNYTCLFVMFPQGSRSVGIWLRVLGSGGGGSEPKSSDKTHTCPPCPAPEAEGAPSVFLFPPKPKDTLMISRTPEVTCVVVDVSHEDPEVKFNWYVDGVEVHNAKTKPREEQYNSTYRVVSVLTVLHQDWLNGKEYKCKVSNKALPAPIEKTISKAKGQPREPQVYTLPPSRDELTKNQVSLTCLVKGFYPSDIAVEWESNGQPENNYKTTPPVLDSDGSFFLYSKLTVDKSRWQQGNVFSCSVMHEALHNHYTQKSLSLSPGK
B4: variant CD155 IgV-Fc P18T, G19D, M36T, S54N, L79P, L83Q, F91S, T107M, F108Y (Fc fusion)
chain: WPPPGTGDVVVQAPTQVTDFLGDSVTLPCYLQVPNTEVTHVSQLTWARHGESGNMAVFHQTQGPSYSESKRLEFVAARPGAEQRNASLRMSGLRVEDEGNYTCLFVMYPQGSRSVDIWLRVLGSGGGGSEPKSSDKTHTCPPCPAPEAEGAPSVFLFPPKPKDTLMISRTPEVTCVVVDVSHEDPEVKFNWYVDGVEVHNAKTKPREEQYNSTYRVVSVLTVLHQDWLNGKEYKCKVSNKALPAPIEKTISKAKGQPREPQVYTLPPSRDELTKNQVSLTCLVKGFYPSDIAVEWESNGQPENNYKTTPPVLDSDGSFFLYSKLTVDKSRWQQGNVFSCSVMHEALHNHYTQKSLSLSPGK
B5: variant CD155 IgV-Fc Q12H, P18T, L21S, G22S, V57A, Q62R, L79P, F91S, T107M (Fc fusion)
chain: WPPPGTGDVVVHAPTQVTGFSSDSVTLPCYLQVPNMEVTHVSQLTWARHGESGSMAAFHQTRGPSYSESKRLEFVAARPGAELRNASLRMSGLRVEDEGNYTCLFVMFPQGSRSVDIWLRVLGSGGGGSEPKSSDKTHTCPPCPAPEAEGAPSVFLFPPKPKDTLMISRTPEVTCVVVDVSHEDPEVKFNWYVDGVEVHNAKTKPREEQYNSTYRVVSVLTVLHQDWLNGKEYKCKVSNKALPAPIEKTISKAKGQPREPQVYTLPPSRDELTKNQVSLTCLVKGFYPSDIAVEWESNGQPENNYKTTPPVLDSDGSFFLYSKLTVDKSRWQQGNVFSCSVMHEALHNHYTQKSLSLSPGK
B6: variant CD155 IgV-Fc V10F, T15S, P18L, R48Q, L79P, F91S, T107M, V115M (Fc fusion)
chain: WPPPGTGDVFVQAPSQVLGFLGDSVTLPCYLQVPNMEVTHVSQLTWAQHGESGSMAVFHQTQGPSYSESKRLEFVAARPGAELRNASLRMSGLRVEDEGNYTCLFVMFPQGSRSMDIWLRVLGSGGGGSEPKSSDKTHTCPPCPAPEAEGAPSVFLFPPKPKDTLMISRTPEVTCVVVDVSHEDPEVKFNWYVDGVEVHNAKTKPREEQYNSTYRVVSVLTVLHQDWLNGKEYKCKVSNKALPAPIEKTISKAKGQPREPQVYTLPPSRDELTKNQVSLTCLVKGFYPSDIAVEWESNGQPENNYKTTPPVLDSDGSFFLYSKLTVDKSRWQQGNVFSCSVMHEALHNHYTQKSLSLSPGK
B7: variant CD155 IgV-Fc P18S, P34S, E51V, L79P, F91S, G111R (Fc fusion)
chain: WPPPGTGDVVVQAPTQVSGFLGDSVTLPCYLQVSNMEVTHVSQLTWARHGVSGSMAVFHQTQGPSYSESKRLEFVAARPGAELRNASLRMSGLRVEDEGNYTCLFVTFPQRSRSVDIWLRVLGSGGGGSEPKSSDKTHTCPPCPAPEAEGAPSVFLFPPKPKDTLMISRTPEVTCVVVDVSHEDPEVKFNWYVDGVEVHNAKTKPREEQYNSTYRVVSVLTVLHQDWLNGKEYKCKVSNKALPAPIEKTISKAKGQPREPQVYTLPPSRDELTKNQVSLTCLVKGFYPSDIAVEWESNGQPENNYKTTPPVLDSDGSFFLYSKLTVDKSRWQQGNVFSCSVMHEALHNHYTQKSLSLSPGK
B8: variant CD155 IgV-Fc V9I, P18F, A47E, G50S, E68G, L79P, F91S, T107M (Fc fusion)
chain: WPPPGTGDIVVQAPTQVFGFLGDSVTLPCYLQVPNMEVTHVSQLTWERHSESGSMAVFHQTQGPSYSGSKRLEFVAARPGAELRNASLRMSGLRVEDEGNYTCLFVMFPQGSRSVDIWLRVLGSGGGGSEPKSSDKTHTCPPCPAPEAEGAPSVFLFPPKPKDTLMISRTPEVTCVVVDVSHEDPEVKFNWYVDGVEVHNAKTKPREEQYNSTYRVVSVLTVLHQDWLNGKEYKCKVSNKALPAPIEKTISKAKGQPREPQVYTLPPSRDELTKNQVSLTCLVKGFYPSDIAVEWESNGQPENNYKTTPPVLDSDGSFFLYSKLTVDKSRWQQGNVFSCSVMHEALHNHYTQKSLSLSPGK
B9: variant CD155 IgV-Fc P18T, T39S, S52P, S54R, L79P, F91S, T107M (Fc fusion)
chain: WPPPGTGDVVVQAPTQVTGFLGDSVTLPCYLQVPNMEVSHVSQLTWARHGEPGRMAVFHQTQGPSYSESKRLEFVAARPGAELRNASLRMSGLRVEDEGNYTCLFVMFPQGSRSVDIWLRVLGSGGGGSEPKSSDKTHTCPPCPAPEAEGAPSVFLFPPKPKDTLMISRTPEVTCVVVDVSHEDPEVKFNWYVDGVEVHNAKTKPREEQYNSTYRVVSVLTVLHQDWLNGKEYKCKVSNKALPAPIEKTISKAKGQPREPQVYTLPPSRDELTKNQVSLTCLVKGFYPSDIAVEWESNGQPENNYKTTPPVLDSDGSFFLYSKLTVDKSRWQQGNVFSCSVMHEALHNHYTQKSLSLSPGK
B10: variant CD155 IgV-Fc V9L, P18L, M55V, S69L, L79P, A81E, F91S, T107M (Fc fusion)
chain: WPPPGTGDLVVQAPTQVLGFLGDSVTLPCYLQVPNMEVTHVSQLTWARHGESGSVAVFHQTQGPSYSELKRLEFVAARPGEELRNASLRMSGLRVEDEGNYTCLFVMFPQGSRSVDIWLRVLGSGGGGSEPKSSDKTHTCPPCPAPEAEGAPSVFLFPPKPKDTLMISRTPEVTCVVVDVSHEDPEVKFNWYVDGVEVHNAKTKPREEQYNSTYRVVSVLTVLHQDWLNGKEYKCKVSNKALPAPIEKTISKAKGQPREPQVYTLPPSRDELTKNQVSLTCLVKGFYPSDIAVEWESNGQPENNYKTTPPVLDSDGSFFLYSKLTVDKSRWQQGNVFSCSVMHEALHNHYTQKSLSLSPGK
B11: variant CD155 IgV-Fc P18T, D23G, Q60R, S67L, L79P, F91S, T107M, V115A (Fc fusion)
chain: WPPPGTGDVVVQAPTQVTGFLGGSVTLPCYLQVPNMEVTHVSQLTWARHGESGSMAVFHRTQGPSYLESKRLEFVAARPGAELRNASLRMSGLRVEDEGNYTCLFVMFPQGSRSADIWLRVLGSGGGGSEPKSSDKTHTCPPCPAPEAEGAPSVFLFPPKPKDTLMISRTPEVTCVVVDVSHEDPEVKFNWYVDGVEVHNAKTKPREEQYNSTYRVVSVLTVLHQDWLNGKEYKCKVSNKALPAPIEKTISKAKGQPREPQVYTLPPSRDELTKNQVSLTCLVKGFYPSDIAVEWESNGQPENNYKTTPPVLDSDGSFFLYSKLTVDKSRWQQGNVFSCSVMHEALHNHYTQKSLSLSPGK
B12: variant CD155 IgV-Fc P18T, W46C, H49R, S65A, S67V, A76T, L79P, S87T, L104M (Fc fusion)
chain: WPPPGTGDVVVQAPTQVTGFLGDSVTLPCYLQVPNMEVTHVSQLTCARRGESGSMAVFHQTQGPAYVESKRLEFVTARPGAELRNATLRMFGLRVEDEGNYTCMFVTFPQGSRSVDIWLRVLGSGGGGSEPKSSDKTHTCPPCPAPEAEGAPSVFLFPPKPKDTLMISRTPEVTCVVVDVSHEDPEVKFNWYVDGVEVHNAKTKPREEQYNSTYRVVSVLTVLHQDWLNGKEYKCKVSNKALPAPIEKTISKAKGQPREPQVYTLPPSRDELTKNQVSLTCLVKGFYPSDIAVEWESNGQPENNYKTTPPVLDSDGSFFLYSKLTVDKSRWQQGNVFSCSVMHEALHNHYTQKSLSLSPGK
B13: variant CD155 IgV-Fc P18F, E51V, S54G, Q60R, L79Q, E82G, S87T, M90I, F91S, G92R, T107M (Fc fusion)
chain: WPPPGTGDVVVQAPTQVFGFLGDSVTLPCYLQVPNMEVTHVSQLTWARHGVSGGMAVFHRTQGPSYSESKRLEFVAARQGAGLRNATLRISRLRVEDEGNYTCLFVMFPQGSRSVDIWLRVLGSGGGGSEPKSSDKTHTCPPCPAPEAEGAPSVFLFPPKPKDTLMISRTPEVTCVVVDVSHEDPEVKFNWYVDGVEVHNAKTKPREEQYNSTYRVVSVLTVLHQDWLNGKEYKCKVSNKALPAPIEKTISKAKGQPREPQVYTLPPSRDELTKNQVSLTCLVKGFYPSDIAVEWESNGQPENNYKTTPPVLDSDGSFFLYSKLTVDKSRWQQGNVFSCSVMHEALHNHYTQKSLSLSPGK
B14: variant CD155 IgV-Fc D8G, V9I, V11A, P18T, T26M, S52P, L79P, F91S, G92A, T107L, V115A (Fc fusion)
chain: WPPPGTGGIVAQAPTQVTGFLGDSVMLPCYLQVPNMEVTHVSQLTWARHGEPGSMAVFHQTQGPSYSESKRLEFVAARPGAELRNASLRMSALRVEDEGNYTCLFVLFPQGSRSADIWLRVLGSGGGGSEPKSSDKTHTCPPCPAPEAEGAPSVFLFPPKPKDTLMISRTPEVTCVVVDVSHEDPEVKFNWYVDGVEVHNAKTKPREEQYNSTYRVVSVLTVLHQDWLNGKEYKCKVSNKALPAPIEKTISKAKGQPREPQVYTLPPSRDELTKNQVSLTCLVKGFYPSDIAVEWESNGQPENNYKTTPPVLDSDGSFFLYSKLTVDKSRWQQGNVFSCSVMHEALHNHYTQKSLSLSPGK

The target of the test is T1, TIGIT (human).
T1 chain: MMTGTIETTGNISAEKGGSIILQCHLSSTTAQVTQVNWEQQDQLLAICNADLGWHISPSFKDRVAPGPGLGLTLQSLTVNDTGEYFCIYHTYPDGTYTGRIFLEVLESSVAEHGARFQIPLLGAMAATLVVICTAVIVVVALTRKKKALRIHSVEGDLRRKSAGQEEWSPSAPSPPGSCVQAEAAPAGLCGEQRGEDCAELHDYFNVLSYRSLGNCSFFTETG
Put plainly: cell-based or functional assay.
As to B1, the “IL-2 luciferase reporter, Normalized Fold Change from CD155-ECD” value is -2.2 fold.

As to B2, the “IL-2 luciferase reporter, Normalized Fold Change from CD155-ECD” value stood at 1.1 fold.

For B3, the “IL-2 luciferase reporter, Normalized Fold Change from CD155-ECD” value is -2.2 fold.

Regarding B4, the “IL-2 luciferase reporter, Normalized Fold Change from CD155-ECD” value came out at 0.3 fold.

As for B5, the “IL-2 luciferase reporter, Normalized Fold Change from CD155-ECD” value is -4.1 fold.

In the case of B6, the “IL-2 luciferase reporter, Normalized Fold Change from CD155-ECD” value is -3.4 fold.

On to B7, for which the “IL-2 luciferase reporter, Normalized Fold Change from CD155-ECD” value came to 2.1 fold.

B8: the “IL-2 luciferase reporter, Normalized Fold Change from CD155-ECD” value amounted to 3 fold.

Regarding B9, the “IL-2 luciferase reporter, Normalized Fold Change from CD155-ECD” value is -0.1 fold.

Consider B10, for which the “IL-2 luciferase reporter, Normalized Fold Change from CD155-ECD” value was determined as 3.1 fold.

Regarding B11, the “IL-2 luciferase reporter, Normalized Fold Change from CD155-ECD” value was 8.6 fold.

For the molecule B12, the “IL-2 luciferase reporter, Normalized Fold Change from CD155-ECD” value was -3.4 fold.

On to B13, for which the “IL-2 luciferase reporter, Normalized Fold Change from CD155-ECD” value was 5.8 fold.

As for B14, the “IL-2 luciferase reporter, Normalized Fold Change from CD155-ECD” value came out at 8.4 fold.
